Test results published in article doi:10.1101/464131, “Increased association between Epstein-Barr virus EBNA2 from type 2 strains and the transcriptional repressor BS69 restricts B cell growth” (bioRxiv, 2018).

B9: BS69 CC-MYND domain (amino acids 480-602) (domain or fragment, human, UniProt Q15326-1 480-602, looked up)
chain: DRMKSDHKRETERVVREALEKLRSEMEEEKRQAVNKAVANMQGEMDRKCKQVKEKCKEEFVEEIKKLATQHKQLISQTKKKQWCYNCEEEAMYHCCWNTSYCSIKCQQEHWHAEHKRTCRRKR
notes: BS69 (ZMYND11), human, C-terminal region with the coiled-coil and MYND domains, amino acids 480-602; canonical isoform 1 of 602 amino acids; Dimer by SEC-MALS; Amplified from pCI-BS69 and cloned into pET49b+; also called ZMYND11; source: E. coli Rosetta 2 (DE3) pLysS, purified (cobalt resin, 3C protease cleavage, Superdex 75); not shown: GST, N-terminal, cleaved; His6, N-terminal, cleaved

How the values were obtained:
[1] = molecular target: T1, BS69 CC-MYND domain (amino acids 480-602) (human, UniProt Q15326-1 480-602); assay: ITC
T1 chain: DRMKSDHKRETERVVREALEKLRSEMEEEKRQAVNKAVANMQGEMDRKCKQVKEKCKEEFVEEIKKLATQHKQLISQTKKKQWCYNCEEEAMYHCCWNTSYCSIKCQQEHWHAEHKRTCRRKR

[2] = molecular target: B9; assay: ITC; EBNA2 polypeptide titrated into BS69CC-MYND (0.1 mM) in the cell, 19 x 2.0 μl injections, 25°C, 20 mM Tris-HCl, 100 mM NaCl, 1 mM TCEP, pH 7.5; one set of sites model; n calculated for monomeric proteins; conditions: both partners purified
[3] = molecular target: B9; assay: ITC; EBNA2 polypeptide titrated into BS69CC-MYND (0.1 mM) in the cell, 29 x 1.3 μl injections, 25°C, 20 mM Tris-HCl, 100 mM NaCl, 1 mM TCEP, pH 7.5; two sets of sites (two event) model; conditions: both partners purified
[4] = molecular target: B9; assay: ITC; EBNA2 peptide (1 mM) titrated into BS69CC-MYND (0.1 mM) in the cell, 13 injections, 25°C, 20 mM Tris-HCl, 100 mM NaCl, 1 mM TCEP, pH 7.5; one-site model with n fixed to 1; conditions: both partners purified
[5] = molecular target: the molecule itself; assay: SEC-MALS; individual proteins, 5 mg/ml, Shodex KW403-4F column, 25°C, 20 mM Tris-HCl, 100 mM NaCl, 1 mM TCEP, pH 7.5

B1: type 1 EBNA2 polypeptide T1 EBNA2_(381-455) (domain or fragment)
chain: SMPELSPVLGLHQGQGAGDSPTPGPSNAAPVCRNSHTATPNVSPIHEPESHNSPEAPILFPDDWYPPSIDPADLD
[1]
  Kd: 730 nM

B2: type 2 EBNA2 polypeptide T2 EBNA2_(348-412) (domain or fragment)
chain: SMPQLSPVVSLHQGQGPENSPTPGPSTAGPVCRVTPSATPDISPIHEPESSDSEEPPFLFPSDWY
notes: pET47b+ construct; also called type 2 EBNA2_(348-412); source: E. coli Rosetta 2 (DE3) pLysS, purified (cobalt resin, 3C protease cleavage, Superdex 75); not shown: His6, N-terminal, cleaved
[2]
  Kd: 1210 nM
  stoichiometry N: 0.33 molar ratio EBNA2 : BS69CC-MYND monomer

B3: type 2 EBNA2 polypeptide T2 EBNA2_(348-422) (domain or fragment)
chain: SMPQLSPVVSLHQGQGPENSPTPGPSTAGPVCRVTPSATPDISPIHEPESSDSEEPPFLFPSDWYPPTLEPAELD
notes: pET47b+ construct; Monomer by SEC-MALS; also called type 2 EBNA2_(348-422); source: E. coli Rosetta 2 (DE3) pLysS, purified (cobalt resin, 3C protease cleavage, Superdex 75); not shown: His6, N-terminal, cleaved
[3]
  dH (second binding event): -1.59 kcal/mol
[2]
  stoichiometry N: 0.15 molar ratio EBNA2 : BS69CC-MYND monomer
[1]
  Kd: 1010 nM

B4: EBNA2_(348-422) SD + m3 mt (domain or fragment)
chain: SMPQLSPVVSLHQGQGPENSPTPGPSTAGPVCRVTPSATPDISPIHEPESSDSEEPPFLFPDDWYPATAEAAELD
notes: EBNA2 of type 2 EBV (AG876), amino acids 348-422 with S409D and motif 3 (PTLEP 414-418) mutated to ATAEA; also called T2 EBNA2_(348-422) SD + motif 3 mt; double mutant type 2 EBNA2 polypeptide; source: E. coli Rosetta 2 (DE3) pLysS, purified (cobalt resin, 3C protease cleavage, Superdex 75); not shown: His6, N-terminal, cleaved
[3]
  dH (second binding event): -9.62 kcal/mol
  fold reduction of the affinity of the second binding event (KD2) against m11: ~2 fold

B5: T2 EBNA2_(348-422) SD mutant (domain or fragment)
chain: SMPQLSPVVSLHQGQGPENSPTPGPSTAGPVCRVTPSATPDISPIHEPESSDSEEPPFLFPDDWYPPTLEPAELD
notes: EBNA2 of type 2 EBV (AG876), amino acids 348-422 with serine 409 changed to aspartate (the position that is 442 in type 1 EBNA2); text and methods print 409; source: E. coli Rosetta 2 (DE3) pLysS, purified (cobalt resin, 3C protease cleavage, Superdex 75); not shown: His6, N-terminal, cleaved
[3]
  dH (second binding event): -7.65 kcal/mol

B6: T2 EBNA2_(348-422) motif 3 mt (domain or fragment)
chain: SMPQLSPVVSLHQGQGPENSPTPGPSTAGPVCRVTPSATPDISPIHEPESSDSEEPPFLFPSDWYPATAEAAELD
notes: EBNA2 of type 2 EBV (AG876), amino acids 348-422, motif 3 (PTLEP 414-418) mutated to ATAEA; source: E. coli Rosetta 2 (DE3) pLysS, purified (cobalt resin, 3C protease cleavage, Superdex 75); not shown: His6, N-terminal, cleaved
[2]
  stoichiometry N: 0.3 molar ratio EBNA2 : BS69CC-MYND monomer

B7: type 2 EBNA2 motif 2 peptide (402-412) (peptide)
peptide: EPPFLFPSDWY
notes: source: synthetic peptide (Peptide Synthetics)
[4]
  Kd: 176000 nM

B8: type 2 EBNA2 motif 3 peptide T2 EBNA2_(412-422) (peptide)
peptide: YPPTLEPAELD
notes: as for B7
[4]
  Kd: 219000 nM

## B9
[5]
  stoichiometry N: 2
